B1: Fhl2 pS255 (protein, UniProt O70433 1-279, looked up)
Four and a half LIM domains …: MTERFDCHHCNESLYGKKYILKEENPHCVACFEELYANTCEECGTPIGCDCKDLSYKDRHWHEGCFHCSRCGSSLVDKPFAAKEEQLLCTDCYSNEYSSKCQECKKTIMPGTRKMEYKGSSWHETCFTCQRCQQPIGTKSFIPKENQNFCVPCYEKQYALQCVQCKKPITTGGVTYREQPWHKECFVCTACKKQLSGQRFTARDEFPYCLTCFCDLYAKKCAGCTNPISGLGGTKYISFEERQWHNDCFNCKKCSLSLVGRGFLTERDDILCPDCGKDI
modifications: phosphorylated S255
B2: Gpsm1 pS567 (protein, UniProt Q9R080 1-673, looked up)
G-protein-signaling modulator …: MASPAPPAAEELPGPAARRLYSRMEASCLELALEGERLCKAGDFKAGVAFFEAAVQVGTEDLKTLSAIYSQLGNAYFYLKEYARALQFHKHDLLLARTIGDRMGEAKASGNLGNTLKVLGRFDEAIVCCQRHLDIAQEQGDKVGEARALYNIGNVYHAKGKQLSWNAAQDPGHLPPDVRETLHRASEFYERNLSLVKELGDRAAQGRAYGNLGNTHYLLGNFTEATTFHKERLAIAKEFGDKAAERRAYSNLGNAHIFLGRFDVAAEHYKKTLQLSRQIRDQAVEAQACYSLGNTYTLLQDYERAAEYHLRHLVIAQELADRVGEGRACWSLGNAYVSMGSPAQALTFAKKHLQISQEIGDRNGELTARMNIAHLQLALGRLTSPAAAEKPDLAGYEAQGARPKRTQRLSAETWDLLRLPLDREQNGETHHTGDWRGPSRDSLPLPMRSRKYQEGPDAIERRPREGSHSPLDSADVRVQVPRTGIPRAPSSDEECFFDLLSKFQSSRMDDQRCPLEEGQAGAAEATAAPTLEERAAQPSVTASPQTEEFFDLIASSQSRRLDDQRASVGSLPGLRITLNNVGHLRGDGDPQEPGDEFFNMLIKYQSSRIDDQRCPPPDVLPRGPTMPDEDFFSLIQRVQAKRMDEQRVDLAGSPDQEASGLPDPRQQCPPGAS
modifications: phosphorylated at S567
B3: Rrad pS25 (protein, UniProt P55043 1-306, looked up)
GTP-binding protein RAD: MTLNGGSGAGGSRSAGRERDRRRGSTPWGPAPPLHRRSMPVDERDLQAALTPGSLAATAAGTRTQGQRLDWPEGSSDSLSSGDSGSEDGVYKVHAAGAPGVGKSALARIFGGVEDGPEAEAAGHTYDRSITVDGEEASLMVYDIWEQDGGCWLPGHCMAMGDAYVIVYSITDKGSFEKASELRVQLRARRQTDVPIILVGNKSDLVRSREVSVDEGRACAEVFDCKFIETSAALHHNVQALFEGVVRQIRLRRDSKEDNARRQAGTRRRESLGKKAKLFLGRIVARNSRKMAFLAKSKSCHDLSVL
modifications: phosphorylated at S25
B4: Hspb1 pS9 (protein, UniProt P14602 1-209, looked up)
Heat shock protein beta-1: MTERRVPFSLLRSPSWEPFRDWYPAHSRLFDQAFGVPRLPDEWSQWFSAAGWPGYVRPLPAATAEGPAAVTLAAPAFSRALNRQLSSGVSEIRQTADRWRVSLDVNHFAPEELTVKTKEGVVEITGKHEERQDEHGYISRCFTRKYTLPPGVDPTLVSSSLSPEGTLTVEAPLPKAVTQSAEITIPVTFEARAQIGGPEAGKSEQSGAK
modifications: phosphorylated S9
B5: Hspb6 pS16 (protein, UniProt P97541 1-162, looked up)
Heat shock protein beta-6: MEIRVPVQPSWLRRASAPLPGFSTPGRLFDQRFGEGLLEAELASLCPAAIAPYYLRAPSVALPTAQVPTDPGYFSVLLDVKHFSPEEISVKVVGDHVEVHARHEERPDEHGFIAREFHRRYRLPPGVDPAAVTSALSPEGVLSIQATPASAQASLPSPPAAK
modifications: phosphorylated at S16
B6: Hmga1 pS36 (protein, UniProt P17095 2-107, looked up)
High mobility group protein …: SESGSKSSQPLASKQEKDGTEKRGRGRPRKQPPVSPGTALVGSQKEPSEVPTPKRPRGRPKGSKNKGAAKTRKVTTAPGRKPRGRPKKLEKEEEEGISQESSEEEQ
modifications: phosphorylated S36
B7: Jph2 pS240 (protein, UniProt Q2PS20 1-692, looked up)
Junctophilin-2: MSGGRFDFDDGGAYCGGWEGGKAHGHGLCTGPKGQGEYSGSWNFGFEVAGVYTWPSGNTFEGYWSQGKRHGLGIETKGRWLYKGEWTHGFKGRYGIRQSTNSGAKYEGTWNNGLQDGYGTETYADGGTYQGQFTNGMRHGYGVRQSVPYGMAVVVRSPLRTSLSSLRSEHSNGTVAPDSPAADGPTLPLPPVPRGGFALSLLATAEAARPPGLFTRGALLGRLRRSESRTSLGSQRSRLSFLKSELSSGASDAASTGSLAEGAEGPDDAAAPFDADIDATTTETYMGEWKNDKRSGFGVSERSSGLRYEGEWLDNLRHGYGRTTLPDGHREEGKYRHNVLVKGTKRRVLPLKSNKVRQKVEHGVEGAQRAAAIARQKAEIAASRTSHAKAKAEAAEQAALAANQESNIARTLAKELAPDFYQPGPEYQKRRLLQEILENSESLLEPRERGPGTGLPERPRESPQLHERETPQPEGGPPSPAGTPPQPKRPRPGSSKDGLLSPGAWNGEPGGEGSRPATPSDGAGRRSPARPASEHMAIEALQPPPAPSREPEVALYRGYHSYAVRTGPPEPPPLEDEPEPEPEVPRSDSEPPSPVSATVQEEESPAPRSRVPAKPATLEPKPIVPKAEPKAKARKTEARGLSKAGAKKKGRKEVAQEAEAEVEVEEVPNTVLICMVILLNIGLAILFVHLLT
modifications: phosphorylated at S240
B8: Lrpprc pS656 (protein, UniProt Q5SGE0 78-1392, looked up)
Leucine-rich PPR …: SGSQFDWALMRLDNSVRRTGRITKGLLQKVFESTCRSGSPGSNQALLLLRSCGSLLPELSLAERTEFAHKIWDKLQQLGTVYDVSHYNALLKVYLQNEYRFSPTDFLAKMEGANIQPNRVTYQRLIAAYCSVGDIEGASKILGFMKTRDLPITEAVFSALVTGHARAGDMESAENILTVMKQAGIEPGPDTYLALLNAHAEKGDIDHVKQILEKVEKSDHYFMDRDFLQIIVSFSKAGYPQYVSEILEKITYERRSIPDAMNLILLLVTEKLEDTAFQVLLALPLARDETSSSFGSFFLRHCVTMDTPAEKLIDYCKRLRDAKVHSSSLQFTLHCALQANKTALAKAVMEALRDEGFPIRTHYFWPLLVGHQKTKNVQGIIDILKIMKEMGVDPDQETYINYVFPCFGSVQSARAALQENKCLPKSTTFAQAEVRNEAINGNLQNILSFLESNALPFSFNSLRGSLILGFRRSMNIDLWSKITELLYKDDRYCQKPPGPTEAVGYFLYNLIDSMSDSEVQAKEERLRQYFHQLREMNVKVSENIYKGICNLLDNYHVPELIKDVKVLVDREKIDSRKTSQFTSSDLESTLEKLKAEGHPVGDPLKQLILLLCSEENMQKALEVKAKYESDMVIGGYAALINLCCRHDNAEDALNLKQEFDRLDPSAVLDTAKYVALVKVLGKHGRVQDAINILKEMKEKDVVIKDAAVLSFFHILNGAALRGEIETVKQLHEAIVTLGLAKPSSNISFPLVTVHLEKDDLPAALEASIACHEKYKVLPRIHDVLCKLIEKGETDLIQKAMDFVSQEQGEMSMLYDLFFAFLQTGNYKEAKKIIETPGIRARPTRLQWFCDRCIANNQVETLEKLVELTEKLFECDRDQMYYNLLKLYKISGDWQRADAVWNKMQEENLIPRERTLRLLAGILKTSNQEVPFDVPELWFGDDRSSLSSSSPSAGDTVTEKMLLSDCRLKKSKDAYNIFLKAEKQDVVFSSEAYSTLVGLLLSKDDFTRAMHVKDFAETHIKGFTLNGAASSLLIIAQVRRDYLKVALETLKAALDLEQVPSELAVTRLIQALALQGDVKSIETIQKMVKGLDAIELSRMVFINNIALAQMKNNEIDAAIENIEHMLASENQTVEHQYFGLSYLFRKVIEEQMEPALEKLSIMSERLANQFALYKPVTDLFLQLVDSGKVDEARALLERCGAIAEQTSILSVFCLRTSQKPKKAPVLKTLLELIPELRENDRVYSCSMKSYVADKDVASAKALYEHLTAKNMKLDDLFLKRYASLLKDVGEPVPFTEPPESFGFYIKQLKEARENPS
modifications: phosphorylated at S656
B9: Matr3 pT150 (protein, UniProt P43244 2-845, looked up)
Matrin-3: SKSFQQSSLGRDSQGHGRDLSAAGIGLLAAATQSLSMPASLGRMNQGTARLASLMNLGMSSSLNQQGAHSALSSASTSSHNLQSIFNIGSRGPLPLSSQHRGDTDQASNILASFGLSARDLDELSRYPEDKITPENLPQILLQLKRRRTEEGPTLSYGRDGRSATREPPYRVPRDDWEEKRHFRRDSFDDRGPSLNPVLDYDHGSRSQESGYYDRMDYEDDRLRDGERCRDDSFFGETSHNYHKFDSEYERMGRGPGPLQERSLFEKKRGAPPSSNIEDFHGLLPKGYPHLCSICDLPVHSNKEWSQHINGASHSRRCQLLLEIYPEWNPDNDTGHTMGDPFMLQQSTNPAPGILGPPPPSFHLGGPAVGPRGNLGAGNGNLQGPRHMQKGRVETSRVVHIMDFQRGKNLRYQLLQLVEPFGVISNHLILNKINEAFIEMATTEDAQAAVDYYTTTPALVFGKPVRVHLSQKYKRIKKPEGKPDEKFDQKQELGRVIHLSNLPHSGYSDSAVLKLAEPYGKIKNYILMRMKSQAFIEMETREDAMAMVDHCLKKALWFQGRCVKVDLSEKYKKLVLRIPNRGIDLLKKDKSRKRSYSPDGKESPSDKKSKTDGAQKTENPAEGKEQEEKSGEDGEKDTKDDQTEQEPSMLLESEDELLVDEEEAAALIESGSSVGDETDLANLGDVSSDGKKEPSDKAVKKDASATSKKKLKKVDKIEELDQENEAALENGIKNEENTEPGAESAENADDPNKDASDNSDGQNDENKEDYTIPDEYRIGPYQPNVPGGIDYVIPKTGFYCKLCSLFYTNEEVAKNTHCSSLPHYQKLKKFLNKLAEERRQKKES
modifications: phosphorylated at T150
B10: Matr3 pS188 (protein, UniProt P43244 2-845, looked up)
Matrin-3: B9 Matrin-3
modifications: phosphorylated at S188

These molecules were tested on PKGIα (analogue-sensitive C42S/M438G), cGMP-activated (assay: Chemical genetic phosphoproteomic screen, cGMP-activated PKGIα C42S/M438G versus unactivated control). Conditions: control = PKGIα C42S/M438G.
Type: biochemical, human PKGIα; substrates in rat heart homogenate
Procedure, shortened: (§1)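 Analogue-sensitive human PKGIα mutants (M438G, air-oxidized to disulfide dimer; C42S/M438G, cGMP-activated), expressed in 293-F cells, thiophosphorylate substrates in rat left-ventricle lysate (20 mg ml) using N6-alkylated ATPγS. Thiophosphopeptides are recovered by covalent capture and identified with sites by LC–MS/MS, each compared against an unactivated control.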

Question: With B1 as the molecule, how does the “log2 fold change cGMP vs Control” value read?
Answer: 3.732

Question: B2 was tested. Which “log2 fold change cGMP vs Control” value did it give?
Answer: 2.926

Question: B3 was tested. Which “log2 fold change cGMP vs Control” value did it give?
Answer: -0.2363

Question: How did the “log2 fold change cGMP vs Control” value turn out when B4 was run?
Answer: 1.482

Question: For B5, which “log2 fold change cGMP vs Control” value is on record?
Answer: 2.607

Question: How did the “log2 fold change cGMP vs Control” value turn out when B6 was run?
Answer: 4.39

Question: With B7 as the molecule, how does the “log2 fold change cGMP vs Control” value read?
Answer: 0.1615

Question: For B8, which “log2 fold change cGMP vs Control” value is on record?
Answer: 4.57

Question: B9 was tested. Which “log2 fold change cGMP vs Control” value did it give?
Answer: 3.582

Question: How did the “log2 fold change cGMP vs Control” value turn out when B10 was run?
Answer: 1.38

These molecules were tested on PKGIα (analogue-sensitive M438G), disulfide-activated (assay: Chemical genetic phosphoproteomic screen, disulfide-activated PKGIα M438G versus unactivated control). Conditions: control = PKGIα C42S/M438G.
Type: biochemical, human PKGIα; substrates in rat heart homogenate
Procedure, shortened: as §1

Question: B1 was tested. Which “log2 fold change Disulfide vs Control” value did it give?
Answer: 1.662

Question: For B2, which “log2 fold change Disulfide vs Control” value is on record?
Answer: 1.042

Question: B3 was tested. Which “log2 fold change Disulfide vs Control” value did it give?
Answer: -0.2493

Question: With B4 as the molecule, how does the “log2 fold change Disulfide vs Control” value read?
Answer: -0.3759

Question: B5 was tested. Which “log2 fold change Disulfide vs Control” value did it give?
Answer: 1.245

Question: For B6, which “log2 fold change Disulfide vs Control” value is on record?
Answer: 1.6764

Question: B7 was tested. Which “log2 fold change Disulfide vs Control” value did it give?
Answer: 0.2694

Question: With B8 as the molecule, how does the “log2 fold change Disulfide vs Control” value read?
Answer: 0.7702

Question: B9 was tested. Which “log2 fold change Disulfide vs Control” value did it give?
Answer: 1.381

Question: For B10, which “log2 fold change Disulfide vs Control” value is on record?
Answer: -0.9169
